One assay concerns the target T1, E. coli RNAP β subunit (E. coli, UniProt P0A8V2 1-1342).
T1 construct: RNA polymerase β subunit, E. coli; Stood in the assay as a subunit of the core enzyme m2, not alone; source: E. coli BL21(DE3), pVS10, purified as part of the RNAP core enzyme
Briefly: cryo-EM structure; EC-RapA: 4 μM RNAP core enzyme with DNA/RNA scaffold, then 5 μM RapA, 22 °C, storage buffer (10 mM Hepes pH 7.5, 50 mM NaCl, 0.1 mM EDTA, 5 mM DTT); gel filtration; 1 mM AMPPNP and CMPCPP; BS3 cross-linked; 3.3 Å. Conditions: both partners purified. (In general: In gel filtration, larger molecules generally elute earlier.)

The target of another assay is T2, E. coli RNAP β′ subunit (E. coli, UniProt P0A8T7 1-1407).
T2 construct: RNA polymerase β′ subunit, E. coli; Stood in the assay as a subunit of the core enzyme m2, not alone; source: E. coli BL21(DE3), pVS10, purified as part of the RNAP core enzyme
The description is as above. Conditions: both partners purified.

T1 sequence (P0A8V2 whole entry): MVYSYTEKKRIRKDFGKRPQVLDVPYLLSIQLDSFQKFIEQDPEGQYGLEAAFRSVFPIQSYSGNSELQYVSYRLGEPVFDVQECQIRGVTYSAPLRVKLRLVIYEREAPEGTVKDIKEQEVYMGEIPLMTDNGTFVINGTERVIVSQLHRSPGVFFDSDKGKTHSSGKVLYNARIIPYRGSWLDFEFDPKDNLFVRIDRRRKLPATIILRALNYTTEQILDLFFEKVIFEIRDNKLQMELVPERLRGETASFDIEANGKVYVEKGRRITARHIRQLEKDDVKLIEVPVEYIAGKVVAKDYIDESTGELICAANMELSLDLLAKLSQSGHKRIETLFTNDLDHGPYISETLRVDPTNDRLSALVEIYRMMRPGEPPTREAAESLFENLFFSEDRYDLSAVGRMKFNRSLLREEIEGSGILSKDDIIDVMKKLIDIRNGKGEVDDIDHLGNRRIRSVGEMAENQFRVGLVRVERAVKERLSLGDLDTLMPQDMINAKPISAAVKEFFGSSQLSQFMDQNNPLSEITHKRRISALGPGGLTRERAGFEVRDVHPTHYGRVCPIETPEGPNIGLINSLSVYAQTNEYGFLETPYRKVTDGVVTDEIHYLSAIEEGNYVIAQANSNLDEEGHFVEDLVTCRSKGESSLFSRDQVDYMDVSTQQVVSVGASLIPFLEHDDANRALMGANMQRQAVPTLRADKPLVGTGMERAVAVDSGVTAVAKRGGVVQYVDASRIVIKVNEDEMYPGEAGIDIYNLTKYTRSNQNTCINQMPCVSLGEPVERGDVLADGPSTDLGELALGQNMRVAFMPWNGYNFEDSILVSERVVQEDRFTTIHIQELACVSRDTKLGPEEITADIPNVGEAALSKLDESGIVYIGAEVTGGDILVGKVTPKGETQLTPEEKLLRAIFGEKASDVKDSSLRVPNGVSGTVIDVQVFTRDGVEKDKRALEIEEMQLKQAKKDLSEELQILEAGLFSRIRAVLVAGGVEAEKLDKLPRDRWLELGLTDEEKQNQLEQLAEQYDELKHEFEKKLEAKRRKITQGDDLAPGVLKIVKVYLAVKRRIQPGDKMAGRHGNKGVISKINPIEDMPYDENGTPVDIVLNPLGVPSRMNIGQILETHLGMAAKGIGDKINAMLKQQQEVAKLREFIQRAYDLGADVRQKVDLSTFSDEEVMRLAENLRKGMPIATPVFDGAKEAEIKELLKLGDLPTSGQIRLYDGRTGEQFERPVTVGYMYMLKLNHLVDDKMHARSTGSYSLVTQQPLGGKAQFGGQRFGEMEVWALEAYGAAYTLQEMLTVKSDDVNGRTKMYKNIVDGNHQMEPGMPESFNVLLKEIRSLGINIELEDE
T2 sequence (P0A8T7 whole entry): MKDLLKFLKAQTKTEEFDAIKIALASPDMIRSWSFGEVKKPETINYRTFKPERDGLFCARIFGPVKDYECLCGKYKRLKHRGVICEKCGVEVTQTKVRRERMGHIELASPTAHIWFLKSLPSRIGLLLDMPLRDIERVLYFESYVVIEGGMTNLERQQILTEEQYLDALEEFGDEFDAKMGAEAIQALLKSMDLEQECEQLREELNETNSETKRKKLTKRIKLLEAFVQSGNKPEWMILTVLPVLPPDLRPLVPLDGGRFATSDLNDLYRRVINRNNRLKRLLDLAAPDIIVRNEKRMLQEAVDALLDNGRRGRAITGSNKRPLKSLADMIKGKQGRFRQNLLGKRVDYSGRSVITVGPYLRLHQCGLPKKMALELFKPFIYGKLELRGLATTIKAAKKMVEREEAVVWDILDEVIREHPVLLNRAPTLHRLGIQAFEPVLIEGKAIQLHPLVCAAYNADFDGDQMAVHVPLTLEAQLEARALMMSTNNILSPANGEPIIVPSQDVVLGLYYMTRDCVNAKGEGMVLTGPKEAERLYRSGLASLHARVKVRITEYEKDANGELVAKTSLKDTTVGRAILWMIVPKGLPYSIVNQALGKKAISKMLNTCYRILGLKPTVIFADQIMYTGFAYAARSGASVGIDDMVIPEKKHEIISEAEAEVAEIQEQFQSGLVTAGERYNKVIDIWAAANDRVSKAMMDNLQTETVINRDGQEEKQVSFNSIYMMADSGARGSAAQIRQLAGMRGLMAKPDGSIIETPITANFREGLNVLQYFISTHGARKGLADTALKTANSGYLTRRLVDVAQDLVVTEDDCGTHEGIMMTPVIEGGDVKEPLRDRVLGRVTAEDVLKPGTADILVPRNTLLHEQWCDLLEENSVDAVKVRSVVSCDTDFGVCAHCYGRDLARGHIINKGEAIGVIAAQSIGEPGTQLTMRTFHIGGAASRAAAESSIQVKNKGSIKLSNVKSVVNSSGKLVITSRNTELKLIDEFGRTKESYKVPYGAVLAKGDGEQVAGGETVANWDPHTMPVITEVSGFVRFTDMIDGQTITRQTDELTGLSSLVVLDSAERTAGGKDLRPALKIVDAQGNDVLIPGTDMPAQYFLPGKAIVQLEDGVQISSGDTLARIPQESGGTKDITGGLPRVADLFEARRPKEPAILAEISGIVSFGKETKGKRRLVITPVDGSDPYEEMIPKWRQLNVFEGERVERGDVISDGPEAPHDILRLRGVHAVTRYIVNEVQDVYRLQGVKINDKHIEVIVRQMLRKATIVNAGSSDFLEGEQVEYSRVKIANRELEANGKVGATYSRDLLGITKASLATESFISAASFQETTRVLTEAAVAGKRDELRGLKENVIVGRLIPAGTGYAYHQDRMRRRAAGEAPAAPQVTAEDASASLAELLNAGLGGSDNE

B1: E. coli RapA protein (enzyme, UniProt P60240 1-968, looked up)
chain: MPFTLGQRWISDTESELGLGTVVAVDARTVTLLFPSTGENRLYARSDSPVTRVMFNPGDTITSHDGWQMQVEEVKEENGLLTYIGTRLDTEESGVALREVFLDSKLVFSKPQDRLFAGQIDRMDRFALRYRARKYSSEQFRMPYSGLRGQRTSLIPHQLNIAHDVGRRHAPRVLLADEVGLGKTIEAGMILHQQLLSGAAERVLIIVPETLQHQWLVEMLRRFNLRFALFDDERYAEAQHDAYNPFDTEQLVICSLDFARRSKQRLEHLCEAEWDLLVVDEAHHLVWSEDAPSREYQAIEQLAEHVPGVLLLTATPEQLGMESHFARLRLLDPNRFHDFAQFVEEQKNYRPVADAVAMLLAGNKLSNDELNMLGEMIGEQDIEPLLQAANSDSEDAQSARQELVSMLMDRHGTSRVLFRNTRNGVKGFPKRELHTIKLPLPTQYQTAIKVSGIMGARKSAEDRARDMLYPERIYQEFEGDNATWWNFDPRVEWLMGYLTSHRSQKVLVICAKAATALQLEQVLREREGIRAAVFHEGMSIIERDRAAAWFAEEDTGAQVLLCSEIGSEGRNFQFASHMVMFDLPFNPDLLEQRIGRLDRIGQAHDIQIHVPYLEKTAQSVLVRWYHEGLDAFEHTCPTGRTIYDSVYNDLINYLASPDQTEGFDDLIKNCREQHEALKAQLEQGRDRLLEIHSNGGEKAQALAESIEEQDDDTNLIAFAMNLFDIIGINQDDRGDNMIVLTPSDHMLVPDFPGLSEDGITITFDREVALAREDAQFITWEHPLIRNGLDLILSGDTGSSTISLLKNKALPVGTLLVELIYVVEAQAPKQLQLNRFLPPTPVRMLLDKNGNNLAAQVEFETFNRQLNAVNRHTGSKLVNAVQQDVHAILQLGEAQIEKSARALIDAARNEADEKLSAELSRLEALRAVNPNIRDDELTAIESNRQQVMESLDQAGWRLDALRLIVVTHQ
notes: RapA, Swi2/Snf2 family ATPase of E. coli, full-length; NTD is residues 1-109; In the EC-RapA sample the complex was cross-linked with BS3; also called τ factor
With B1, the binding result in the assay with E. coli RNAP β subunit and in the assay with E. coli RNAP β′ subunit was “binds” in each case.

The values above are taken from paper PMC8666675, “Structural basis of RNA polymerase recycling by the Swi2/Snf2 family of ATPase RapA in Escherichia coli” (The Journal of Biological Chemistry, 2021).
